Source: US20240369485A1, “FLUORESCENT SENSOR FOR MONITORING CALCIUM DYNAMICS” (priority 2021, published 2024)
Read-outs that look alike come from different tables or passages of the source.

Key:
[1] = Calcium (Ca^2+) binding assay: fluorescence/absorbance titration of purified protein
Method: Calcium (Ca^2+) binding assay. 10 μM protein samples of mApple, EGFP, and mCherry variants were titrated with different concentrations of Ca^2+. Data were fitted with a 1:1 binding equation. Fluorescence intensities were collected using a Spectrofluorimeter (Photon Technology International, Inc.) and the absorbance values of Ca^2+-free and Ca^2+-loaded forms were determined using a Shimadzu UV-1601 spectrophotome.
Ca^2+ binding assay. Fluorescence measurements of mApple variants with increasing Ca^2+ concentrations were done in order to obtain the affinity of the sensor for Ca^2+ in vitro. Samples of 10 μM mApple variants with 5 μM EGTA were prepared in triplicate in 1 mL volumes in 10 mM Tris, pH 7.4. The samples were placed in quartz fluorescence cuvettes, and metal ion was titrated into each sample, in a stepwise manner, using 0.1 M and 1 M metal stock solutions. The fluorescence response of the indicator to increasing Ca^2+ concentrations was monitored using a fluorescence spectrophotometer (Photon Technology International, Canada) with the Felix32 fluorescence analysis software. The absorbance spectra before and after titration were obtained using a Shimadzu UV-1601 spectrophotometer.

[2] = pKa determination of the chromophore; assay type: physicochemical
Method: pKa determination. To measure the chromophore pKa of mApple, EGFP, and mCherry variants, the proteins were prepared in buffers (sodium acetate buffer for pH 3-5, MES buffer for pH 5-6, HEPES buffer for pH 6.5-8, TRIS buffer for pH 8.5-9) covering a pH range from 3 to 10. All samples were Incubated at 4° C. overnight, then the following day, the absorbance and fluorescence spectra were collected using a Shimadzu UV-1601 spectrophotometer and the Spectrofluorimeter.

[3] = In vitro kinetics by stopped flow spectrofluorometer; assay type: binding
Method: In vitro kinetics by stopped flow spectrofluorometer. The kinetics were determined by a Hi-Tech SF-61 stopped-flow spectrofluorometer equipped with the mercury-Xe lamp (10 mm path length, dead time of 2.2 ms) at 20° C. For R-CatchER and its variant or R-CEPIA1er, excitation was at 569 nm and a long-pass 590 nm filter was used. For G-CEPIA1er, a 530 nm long-pass filter was set with excitation at 498 nm, while for MCD1, excitation at 587 nm and a long-pass 600 nm filter were applied. For association kinetics, R-CatchER, R-CatchER variant, MCD1, R-CEPIA1er, and G-CEPIA1er were mixed with the same buffer containing an increasing concentration of Ca^2+. For disassociation kinetics, R-CatchER, R-CatchER variant, MCD1, R-CEPIA1er, and G-CEPIA1er in buffers with concentration of Ca^2+ at Kd, were mixed with 5 mM EGTA or buffer. The raw data were fitted using either single exponential for R-CatchER, R-CatchER variant, and MCD1, or double exponential equations for R-CEPIA1er and G-CEPIA1er.

C2C12 cells = assay: HILO imaging of ER Ca^2+ dynamics in C2C12 cells; assay type: cell-based; settings: ER Ca^2+ release
Method: Cell culture and transfection. C2C12, HEK293 and HeLa cells were cultured and maintained in Dulbecco's modified Eagle's medium (DMEM) supplemented with 10% fetal bovine serum (FBS) and high glucose (4.5 g/L) at 37° C. R-CatchER, G-CatchER2, G-CEPIA1er, R-CEPIA1er or R-CatchER with GFP-CaSR (wt and mutations) were transfected into cells using Lipofectamine 3000 (Life Technologies), following the manufacturer's instructions. Seed cells onto sterilized 22 mm×40 mm glass microscope slides in 6 cm dishes until about 70% confluency, the day of transfection. The next day, 2 μg of plasmid were mixed with transfection reagent in the reduced serum media Opti-MEM for 4-6 h at 37° C. The media was then replaced with 3 mL of fresh DMEM and incubated at 37° C. for 48 h.
HILO imaging of R-CatchER, G-CatchER2, R-CEPIA1er, and G-CEPIA1er. […] A quad-band filter set (TRF89901v2, Chroma) was used for filtering out the fluorescence background. Fluorescence images of samples were recorded at 1 Hz as the concentration of ER Ca^2+ was perturbed by perfusion of 3 μM Thapsigargin, 0.5 mM 4-cmc, 1 mM 4-cmc, 100 μM ATP, or 100 μM histamine.

HeLa cells = assay: Confocal imaging of R-CatchER with ER-tracker green; assay type: cell-based
Method: Confocal imaging of R-CatchER. HeLa cells were transfected with R-CatchER two days before fixing. Cells were fixed with 3.7% Thermo Scientific™ Pierce™ 16% Formaldehyde (w/v), methanol-free, and permeabilized with 0.1% Triton X-100. Cells were then stained with ER-Tracker green (Invitrogen) and with ProLong gold antifade mountant with DAPI (Invitrogen) for staining the nucleus. Confocal imaging then was performed using a Zeiss LSM 700 confocal laser scanning microscope (CLSM).

ER Ca^2+ = assay: Quantitative basal/resting ER Ca^2+ measurement using R-CatchER; assay type: cell-based

B1: R-CatchER: red genetically encoded Ca^2+ indicator, mApple A145E/K198D/R216D, SEQ ID NO: 12 (protein)
chain: EENNMAIIKEFMRFKVHMEGSVNGHEFEIEGEGEGRPYEAFQTAKLKVTKGGPLPFAWDILSPQFMYGSKVYIKHPADIPDYFKLSFPEGFRWERVMNFEDGGIIHVNQDSSLQDGVFIYKVKLRGTNFPSDGPVMQKKTMGWEESEERMYPEDGALKSEIKKRLKLKDGGHYAAEVKTTYKAKKPVQLPGAYIVDIDLDIVSHNEDYTIVEQYEDAEGRHSTGGMDELYK
Ca^2+ induced fluorescence changes upon addition of other ions (metal selectivity) ([1]; 1 mM Mg^2+, 150 mM KCl, 150 mM NaCl): insensitive
Fmax/Fmin ([1]; EGFP and mApple variants): 4.22
Aholo/Aapo ([1]; absorbance at 569): 4.33 (569)
fluorescence dynamic range ΔF/F ([1]; in vitro, Ca^2+ binding): 4.22±0.04
Kd ([1]; in vitro, purified protein, read-out: Kd for Ca^2+ binding): 350 ± 30 µM
Hill coefficient ([1]; purified indicator, Ca^2+ binding): 0.98
Dynamic Range ([1]; purified indicator, Ca^2+ induced fluorescence): 4.2
Kd ([1]; purified indicator, Ca^2+, read-out: Kd): 361 µM
apparent pKa ([2]; 0 mM Ca^2+): 8.58±0.11
apparent pKa ([2]; 10 mM Ca^2+): 7.11±0.10
pka ([2]; Apo): 8.58 ± 0.11
pKa (holo) ([2]; Holo): 7.1
pka ([2]; Holo): 7.11 ± 0.10
pKa (apo) ([2]; apo): 8.6
kon ([3]; Ca^2+ association): >7e+06 M⁻¹ s⁻¹
koff ([3]; Ca^2+ dissociation): >2000 s⁻¹
Ca^2+ association rate kon ([3]; stopped-flow, dead time 2.2 ms, 20° C.): ≥ 7e+06 M⁻¹ s⁻¹
fluorescence decrease ΔF/F (C2C12 cells; 0.5 mM 4-cmc): 0.36±0.01
fluorescence decrease ΔF/F (C2C12 cells; 1 mM 4-cmc): 0.47±0.02
Pearson's Coefficient of colocalisation with ER-tracker green (HeLa cells): 0.83
Basal [Ca^2+]ER (ER Ca^2+; 6-23 cells, 0.5 mM Ca^2+): 735.0 ± 66.7 µM
Basal [Ca^2+]ER (ER Ca^2+; CaSR L173P, 1.8 mM Ca^2+): 893.6 ± 67.6 µM
Basal [Ca^2+]ER (ER Ca^2+; CaSR P221L, 1.8 mM Ca^2+): 477.7 ± 49.4 µM
Basal [Ca^2+]ER (ER Ca^2+; CaSR P221Q, 1.8 mM Ca^2+): 674.6 ± 50.2 µM
Basal [Ca^2+]ER (ER Ca^2+; CaSR S820F, 1.8 mM Ca^2+): 406.1 ± 41.4 µM
Basal [Ca^2+]ER (ER Ca^2+; GFP-CaSR, 0.5 mM Ca^2+): 487.1 ± 48.2 µM
resting ER Ca^2+ concentration (ER Ca^2+; HEK293 cells): 0.68 ± 0.22 mM
resting ER Ca^2+ concentration (ER Ca^2+; HeLa cells): 0.59 ± 0.16 mM
Basal [Ca^2+]ER (ER Ca^2+; TT cells, 0.5 mM Ca^2+): 539.0 ± 65.9 µM
